In US20180037654A1 (ADURO BIOTECH HOLDINGS EUROPE B V, published 2018):
Substitutions are numbered along the chain they refer to. Names may count otherwise.

T1: Mou-Hum-CTLA-4 (mouse/human chimera)
T1 construct: Mouse residues on strand 1, 2, 5 and 6 and human residues on strand 3, 4, 7 and 8; transiently expressed on CHO-K1 cells; also called mouse-human variant; mouse-human exchange mutant
T1 chain: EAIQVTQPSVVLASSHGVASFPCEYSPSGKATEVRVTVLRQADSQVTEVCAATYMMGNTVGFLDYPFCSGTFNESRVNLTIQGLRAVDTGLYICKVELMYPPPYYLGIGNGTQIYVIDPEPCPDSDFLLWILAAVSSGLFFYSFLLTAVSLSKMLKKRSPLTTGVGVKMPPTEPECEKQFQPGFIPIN

B1: hCTLA4.27H1L1 (antibody, human IgG4 S228P, kappa, V domains shown)
VH: EVQLLQSGAVLARPGTSVKISCKASGYSFTTYWMNWVKQRPGQGLEWIGMIHPSDSETSLNQAFKDKAKLTAATSASIAYLEFSSLTNEDSAVYYCARMGRRNPYYFDYWGQGTLVTVSS
VL: DIQMTQSPSSLSASVGDRVTITCRPSENLYTNLAWYQQKPGKAPKLLLYGATNLADGVPSRFSGSGSGTDYTLTISSLQPEDFATYYCQHLWGTPFTFGQGTKLEIKR
notes: Humanized, human IgG4 (S228P) kappa; H1 read as hCTLA4.27VH1, L1 as hCTLA4.27VL1
B2: hCTLA4.27H4L2 (antibody, human IgG4 S228P, kappa, V domains shown)
VH: EVQLVQSGAEVKKPGASVKVSCKASGYSFTTYWMNWVRQAPGQGLEWMGMIHPSDSETSLNQAFKDRVTMTRDTSTSTVYMELSSLRSEDTAVYYCARMGRRNPYYFDYWGQGTLVTVSS
VL: B1 VL with L48I, D70E, Y71F, T72S, T74S, Q100G, L104V
notes: Humanized, human IgG4 (S228P) kappa; H4 read as hCTLA4.27VH4, L2 as hCTLA4.27VL2
B3: hCTLA4.27H2L2 (antibody, human IgG4 S228P, kappa, V domains shown)
VH: EVQLVQSGAVLVKPGASVKVSCKASGYSFTTYWMNWVRQRPGKGLEWIGMIHPSDSETSLNQAFKDKVTITADESTSTAYMQLSSLRSEDTAVYYCARMGRRNPYYFDYWGQGTTVTVSS
VL: B1 VL with L48I, D70E, Y71F, T72S, T74S, Q100G, L104V
notes: Humanized, human IgG4 (S228P) kappa; H2 read as hCTLA4.27VH2, L2 as hCTLA4.27VL2
B4: hCTLA4.27H3L1 (antibody, human IgG4 S228P, kappa, V domains shown)
VH: B2 VH with E10V, K12A, A16S, M70I, R72A, T74K, V79A, R87T, L115T
VL: B1 VL
notes: Humanized, human IgG4 (S228P) kappa; H3 read as hCTLA4.27VH3, L1 as hCTLA4.27VL1
B5: hCTLA4.27H6L2 (antibody, human IgG4 S228P, kappa, V domains shown)
VH: B1 VH with Q6E, A9P, V10E, A12V, T16S, Q43K, A68V, T87R
VL: B1 VL with L48I, D70E, Y71F, T72S, T74S, Q100G, L104V
notes: Humanized, human IgG4 (S228P) kappa; H6 read as hCTLA4.27VH6, L2 as hCTLA4.27VL2
B6: hCTLA4.27H2L5 (antibody, human IgG4 S228P, kappa, V domains shown)
VH: B3 VH
VL: B1 VL with S7A, P80A, Q100G
notes: Humanized, human IgG4 (S228P) kappa; H2 read as hCTLA4.27VH2, L5 as hCTLA4.27VL5
B7: hCTLA4.27H2L1 (antibody, human IgG4 S228P, kappa, V domains shown)
VH: B3 VH
VL: B1 VL
notes: Humanized, human IgG4 (S228P) kappa; H2 read as hCTLA4.27VH2, L1 as hCTLA4.27VL1
B8: hCTLA4.27H1L5 (antibody, human IgG4 S228P, kappa, V domains shown)
VH: B1 VH
VL: B1 VL with S7A, P80A, Q100G
notes: Humanized, human IgG4 (S228P) kappa; H1 read as hCTLA4.27VH1, L5 as hCTLA4.27VL5
B9: hCTLA4.27H5L1 (antibody, human IgG4 S228P, kappa, V domains shown)
VH: B1 VH with S7A, Q43K, M99I
VL: B1 VL
notes: Humanized, human IgG4 (S228P) kappa; H5 read as hCTLA4.27VH5, L1 as hCTLA4.27VL1
B10: hCTLA4.27H6L3 (antibody, human IgG4 S228P, kappa, V domains shown)
VH: B1 VH with Q6E, A9P, V10E, A12V, T16S, Q43K, A68V, T87R
VL: B1 VL with R18T, P80S
notes: Humanized, human IgG4 (S228P) kappa; H6 read as hCTLA4.27VH6, L3 as hCTLA4.27VL3
B11: hCTLA4.27H4L3 (antibody, human IgG4 S228P, kappa, V domains shown)
VH: B2 VH
VL: B1 VL with R18T, P80S
notes: Humanized, human IgG4 (S228P) kappa; H4 read as hCTLA4.27VH4, L3 as hCTLA4.27VL3
B12: hCTLA4.27H6L5 (antibody, human IgG4 S228P, kappa, V domains shown)
VH: B1 VH with Q6E, A9P, V10E, A12V, T16S, Q43K, A68V, T87R
VL: B1 VL with S7A, P80A, Q100G
notes: Humanized, human IgG4 (S228P) kappa; H6 read as hCTLA4.27VH6, L5 as hCTLA4.27VL5
B13: hCTLA4.27H5L3 (antibody, human IgG4 S228P, kappa, V domains shown)
VH: B1 VH with S7A, Q43K, M99I
VL: B1 VL with R18T, P80S
notes: Humanized, human IgG4 (S228P) kappa; H5 read as hCTLA4.27VH5, L3 as hCTLA4.27VL3
B14: hCTLA4.27H3L5 (antibody, human IgG4 S228P, kappa, V domains shown)
VH: B2 VH with E10V, K12A, A16S, M70I, R72A, T74K, V79A, R87T, L115T
VL: B1 VL with S7A, P80A, Q100G
notes: Humanized, human IgG4 (S228P) kappa; H3 read as hCTLA4.27VH3, L5 as hCTLA4.27VL5
B15: hCTLA4.27H1L2 (antibody, human IgG4 S228P, kappa, V domains shown)
VH: B1 VH
VL: B1 VL with L48I, D70E, Y71F, T72S, T74S, Q100G, L104V
notes: Humanized, human IgG4 (S228P) kappa; H1 read as hCTLA4.27VH1, L2 as hCTLA4.27VL2
B16: hCTLA4.27H4L5 (antibody, human IgG4 S228P, kappa, V domains shown)
VH: B2 VH
VL: B1 VL with S7A, P80A, Q100G
notes: Humanized, human IgG4 (S228P) kappa; H4 read as hCTLA4.27VH4, L5 as hCTLA4.27VL5
B17: hCTLA4.27H5L2 (antibody, human IgG4 S228P, kappa, V domains shown)
VH: B1 VH with S7A, Q43K, M99I
VL: B1 VL with L48I, D70E, Y71F, T72S, T74S, Q100G, L104V
notes: Humanized, human IgG4 (S228P) kappa; H5 read as hCTLA4.27VH5, L2 as hCTLA4.27VL2
B18: hCTLA4.27H3L3 (antibody, human IgG4 S228P, kappa, V domains shown)
VH: B2 VH with E10V, K12A, A16S, M70I, R72A, T74K, V79A, R87T, L115T
VL: B1 VL with R18T, P80S
notes: Humanized, human IgG4 (S228P) kappa; H3 read as hCTLA4.27VH3, L3 as hCTLA4.27VL3
B19: hCTLA4.27H2L3 (antibody, human IgG4 S228P, kappa, V domains shown)
VH: B3 VH
VL: B1 VL with R18T, P80S
notes: Humanized, human IgG4 (S228P) kappa; H2 read as hCTLA4.27VH2, L3 as hCTLA4.27VL3
B20: hCTLA4.27H3L2 (antibody, human IgG4 S228P, kappa, V domains shown)
VH: B2 VH with E10V, K12A, A16S, M70I, R72A, T74K, V79A, R87T, L115T
VL: B1 VL with L48I, D70E, Y71F, T72S, T74S, Q100G, L104V
notes: Humanized, human IgG4 (S228P) kappa; H3 read as hCTLA4.27VH3, L2 as hCTLA4.27VL2
B21: hCTLA4.27H5L5 (antibody, human IgG4 S228P, kappa, V domains shown)
VH: B1 VH with S7A, Q43K, M99I
VL: B1 VL with S7A, P80A, Q100G
notes: Humanized, human IgG4 (S228P) kappa; H5 read as hCTLA4.27VH5, L5 as hCTLA4.27VL5
B22: hCTLA4.27H4L1 (antibody, human IgG4 S228P, kappa, V domains shown)
VH: B2 VH
VL: B1 VL
notes: Humanized, human IgG4 (S228P) kappa; H4 read as hCTLA4.27VH4, L1 as hCTLA4.27VL1
B23: hCTLA4.27H6L1 (antibody, human IgG4 S228P, kappa, V domains shown)
VH: B1 VH with Q6E, A9P, V10E, A12V, T16S, Q43K, A68V, T87R
VL: B1 VL
notes: Humanized, human IgG4 (S228P) kappa; H6 read as hCTLA4.27VH6, L1 as hCTLA4.27VL1
B24: hCTLA4.27H1L3 (antibody, human IgG4 S228P, kappa, V domains shown)
VH: B1 VH
VL: B1 VL with R18T, P80S
notes: Humanized, human IgG4 (S228P) kappa; H1 read as hCTLA4.27VH1, L3 as hCTLA4.27VL3
B25: 10D1 (antibody, V domains shown)
VH: QVQLVESGGGVVQPGRSLRLSCAASGFTFSSYTMHWVRQAPGKGLEWVTFISYDGNNKYYADSVKGRFTISRDNSKNTLYLQMNSLRAEDTAIYYCARTGWLGPFDYWGQGTLVTVSS
VL: not shown

target: T2, human CTLA-4 (Y166G and Y183G) expressed on CHO-K1.hCTLA-4 cells (human, UniProt P16410 36-223); test: CELISA, blockade of biotinylated hCD80/Fc binding to CHO-K1.hCTLA-4 cells
T2 sequence (P16410 36-223 Y201G/Y218G limits assumed): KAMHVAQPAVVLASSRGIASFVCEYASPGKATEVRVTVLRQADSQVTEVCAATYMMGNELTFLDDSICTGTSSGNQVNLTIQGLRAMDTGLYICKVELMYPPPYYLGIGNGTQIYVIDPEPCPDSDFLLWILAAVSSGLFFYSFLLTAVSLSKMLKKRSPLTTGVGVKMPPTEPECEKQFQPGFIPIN
Experimental: CHO-K1.hCTLA-4 cells were seeded in tissue culture plates and incubated at 37° C., 5% CO₂ and 95% humidity in culture medium. Once the cells were confluent culture medium was removed and cells were incubated for 1 hour with the humanized hCTL4.27 antibody variants (10 μg/ml and dilutions thereof) at 37° C., 5% CO₂ and 95% humidity. […] Cells were then washed with PBST followed by addition of Streptavidin-HRP conjugate on the cells, which was incubated for 1 hour at 37° C., 5% CO₂ and 95% humidity. […] Reactions were stopped with 0.5 M H₂SO₄ and absorbances were read at 450 and 610 nm. […] IC50 values represent the concentration at which half of the inhibition is observed.

| IC50 [pM] | Binder |
| --- | --- |
| 2550 | B1 |
| 2520 | B2 |
| 2590 | B3 |
| 2520 | B4 |
| 1800 | B5 |
| 2720 | B6 |
| 2980 | B7 |
| 3440 | B8 |
| 5390 | B9 |
| 1820 | B10 |
| 3260 | B11 |
| 2570 | B12 |
| 2570 | B13 |
| 3670 | B14 |
| 2720 | B15 |
| 3080 | B16 |
| 10300 | B17 |
| 3360 | B18 |
| 2970 | B19 |
| 2060 | B20 |
| 1910 | B21 |
| 3330 | B22 |
| 2060 | B23 |
| 3130 | B24 |

target: T2, human CTLA-4 (Y166G and Y183G) …; test: CELISA on CHO-K1.hCTLA-4 cells
Experimental: Binding of the humanized antibodies to hCTLA-4 was studied in CELISA format. CHO-K1.hCTLA-4 cells were seeded in culture medium (DMEM-F12 (Gibco) with 10% Fetal Bovine Serum (Hyclone) and Pen/Strep (Gibco)) in tissue culture plates and cultured at 37° C., 5% CO₂ and 95% humidity until they were confluent. Subsequently, culture medium was removed and cells were incubated for 1 hour at 37° C., 5% CO₂ and 95% humidity with purified hCTLA-4 antibodies (10 μg/ml and dilutions thereof). Next, cells were washed with PBS/0.05% Tween (PBST) and incubated for 1 hour at 37° C., 5% CO₂ and 95% humidity with goat-anti-human IgG-HRP (Southern Biotechnology) or goat-anti-mouse IgG-HRP (Southern Biotechnology). Subsequently, cells were washed 3 times with PBST and anti-hCTLA-4 immunoreactivity was visualized with TMB Stabilized Chromagen (Invitrogen). Reactions were stopped with 0.5 M H₂SO₄ and absorbances were read at 450 and 610 nm.

| EC50 [pM] | Binder |
| --- | --- |
| 37 | B1 |
| 47 | B2 |
| 44 | B3 |
| 70 | B4 |
| 27 | B5 |
| 45 | B6 |
| 42 | B7 |
| 46 | B8 |
| 29 | B9 |
| 28 | B10 |
| 51 | B11 |
| 36 | B12 |
| 42 | B13 |
| 82 | B14 |
| 40 | B15 |
| 61 | B16 |
| 42 | B17 |
| 101 | B18 |
| 51 | B19 |
| 65 | B20 |
| 35 | B21 |
| 70 | B22 |
| 44 | B23 |
| 45 | B24 |

Target: T1, Mou-Hum-CTLA-4
Test: CELISA on CHO-K1 cells transiently transfected with Mou-Hum-CTLA-4, panel Mouse/Human
Experimental: The cDNAs encoding these constructs (SEQ ID NO: 41 and 43, respectively) were synthesized and subcloned into the pCI-Neo vector (GeneArt). […] To this end CHO-K1 cells were transiently transfected, using Lipofectamine 2000 (Invitrogen), with the pCI-Neo vectors expressing human CTLA-4 (hCTLA-4), mouse CTLA-4 (mCTLA-4) (SEQ ID NO: 45), Hum-Mou-CTLA-4, and Mou-Hum-CTLA-4 respectively. The transfected cells were cultured at 37° C., 5% CO₂ and 95% humidity in medium (DMEM-F12 (Gibco) with 5% New Born Calf serum (Biowest) and Pen/Strep (Gibco)) until confluent. Subsequently, cells were trypsinized and seeded in tissue culture plates and cultured at 37° C., 5% CO₂ and 95% humidity in culture medium until confluent. Then, culture medium was removed and cells were incubated for 1 hour at 37° C., 5% CO₂ and 95% humidity with hCTLA-4 antibodies. Next, cells were washed with PBS/0.05% Tween (PBST) and incubated for 1 hour at 37° C., 5% CO₂ and 95% humidity with 1:2,000 goat-anti-human IgG-HRP (Jackson Immunoresearch). After that, cells were washed 3 times with PBST and anti-CTLA-4 immunoreactivity was visualized with TMB Stabilized Chromagen (Invitrogen).

| EC50 (read off the curve) [pM] | Binder |
| --- | --- |
| ~70 | B25 |
